Experimental data published in the RNAGym collection of RNA variant scans (doi:10.1073/pnas.2313332121).

B1: TPR t1 (parent)
chain: GACCAAUCUGCCCUCAGAGCUCGAGAACAUCUUCGGAUGCAGAGGAGGCAGGCUUCGGUGGCGCGAUAGCGCCAACGUCCUCAACCUCCAAUGCAUCCCACCACAUGAUGAUGCCUGAAGAGCCUUGGUUUUUUG

Variants of: B1
Assay: polymerase ribozyme fitness, log enrichment relative to wild type (log ratio); higher = more active; in vitro selection for triplet polymerase activity
How it was run: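 Input and output libraries were sequenced on Illumina after a single in vitro selection round, run in triplicate on PCR-built, transcribed mutant libraries of each subunit of a heterodimeric triplet polymerase ribozyme. Selection annealed libraries to a biotinylated primer, the partner subunit and triplets, incubated them frozen at −7 °C, then gel-excised extended constructs for streptavidin-bead capture and RT-PCR. Genotypes with ≥10 input reads and ≥1 read per output were kept. Fitness is the logarithm, taken in base 2, of genotype enrichment divided by wild-type enrichment, using inverse-variance-weighted replicate averages.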

| Variant | polymerase ribozyme fitness (log ratio) |
| --- | --- |
| GACCAAUCUGCCCUCAGAGCUCGAGAACAUCUUCGGAUGCAGAGGAGGCAGGCUUCGGUGGCGCGAUAGCGACAACGUCCUCAAACUCCAAUGCAUCCCACCACAUGAUGAUGCCUGAAGCGCCUUGGUUUUUUG [C72A C85A A121C] | 1.56 |
| GACCAAUCUGCCCUCAGAGCUCGAGAACAUCUUCGGAUGCAGAGGAGGCAGGCUUCGGUGGCGCGAUAGCGACAACGUCCUCAACCUCCAAUGCAUCCCACCACAUGAUUAUGCCUGAAGAGCCUUGGUUUUUUG [C72A G110U] | -1.54 |
| GACCAAUCUGCCCUCAGAGCUCGAGAACAUCUUCGGAUGCAGAGGAGGCAGGCUUCGGUGGCGCGAUAGCGACAACGUCCUCCACCUCCAAUGCAACCCACCACAUGAUAAUGCCUGAAGAGCCUUGGUUUUUUG [C72A A83C U96A G110A] | -2.24 |
| GACCAAUCUGCCCUCAGAGCUCGAGAACAUCUUCGGAUGCAGAGGAGGCAGGCUUCGGUGGCGCGAUAGCUCCAACGUCCUCAACCUCCAAUGCAUCCCACCACAUGAUGAUGCCUGAAGAACCUUGGUUUUUUG [G71U G122A] | -0.705 |
| GACCAAUCUGCCCUCAGAGCUCGAGAACAUCUUCGGAUGCAGAGGAGGCAGGCUUCGGUGGCGCGAUAGCGACAACGUCCUCAACCUCCAAUGCAUCCCACCACAUGAUGAUGCCUGAAGAGCUUUGGUUAUUUG [C72A C124U U131A] | 1.33 |
| GACCAAUCUGCCCUCAGAGCUCGAGAACAUCUUCGGAUGCAGAGGAGGCAGGCUUCGGUGGCGCGAUAGCGACAACGUCCUAAACCUCCAAUGCAGCCCUCCACAUGAUGAUGCAUGAAGAGCCUUGGUUUUUUG [C72A C82A U96G A100U C115A] | -3.23 |
| GACCAAUCUGCCCUCAGAGCUCGAGAACAUCUUCGGAUGCAGAGGAGGCAGGCUUCGGUGGCGCGAUAGCGACAACGUCCUCAAUCUCCCAUGCAUCCCACCACAUGAUGAUGCCUGAAGAGCCUUGGUUUUUUG [C72A C85U A90C] | -1.5 |
| GACCAAUCUGCCCUCAGAGCUCGAGAACAUCUUCGGAUGCAGAGGAGGCAGGCUUCGGUGGCGCGAUAGCGACACCGUCCUCAACCUCCAAUGCAUCCCACCACAUGAUGAUGCCUGAAGAGCCUUGGUUUUUUG [C72A A75C] | -0.344 |
| GACCAAUCUGCCCUCAGAGCUCGAGAACAUCUUCGGAUGCAGAGGAGGCAGGCUUCGGUGGCGCGAUAGCUCCAACGUCCUCAACCGCCAAUGCAUCCCACCACAUGAUGAUGCCUGAAGAGCCUUGGUUUUUUG [G71U U87G] | -0.424 |
| GACCAAUCUGCCCUCAGAGCUCGAGAACAUCUUCGGAUGCAGAGGAGGCAGGCUUCGGUGGCGCGAUAGCUCCAACGUCCUCAACCACCAAUGCAUCCCACCACAUGAUGAUGCCUGAAGAGCCUUGGUUUUUUG [G71U U87A] | -1.3 |
| GACCAAUCUGCCCUCAGAGCUCGAGAACAUCUUCGGAUGCAGAGGAGGCAGGCUUCGGUGGCGCGAUAGCUCCAACGUCCCCAACCUCCAAUACAUCCCACCACAUGAUGAUGCCUGAAAAGCCUUGGUUUUUUG [G71U U81C G93A G120A] | -0.964 |
| GACCAAUCUGCCCUCAGAGCUCGAGAACAUCUUCGGAUGCAGAGGAGGCAGGCUUCGGUGGCGCGAUAGCGACAACGUCCUCAACCUCCAAUGCAUCCCACUACAUGAUGAUGCCUGAAGAGCCUUGGUUUUUUG [C72A C102U] | -1.48 |
| GACCAAUCUGCCCUCAGAGCUCGAGAACAUCUUCGGAUGCAGAGGAGGCAGGCUUCGGUGGCGCGAUAGCGACAACGUCCUCAACCUCCAAUCCAUCCCACCACAUGAUGAUGUUUGAAGAGCCUUGGUUUUUUG [C72A G93C C114U C115U] | -6.52 |
| GACCAAUCUGCCCUCAGAGCUCGAGAACAUCUUCGGAUGCAGAGGAGGCAGGCUUCGGUGGCGCGAUAGCGACAACGUCCUCAACCUCCAAUGCAUCCCACCACAUGAUAAUGCCUGAAGAGCCUUGGUUAUUUG [C72A G110A U131A] | -0.37 |
| GACCAAUCUGCCCUCAGAGCUCGAGAACAUCUUCGGAUGCAGAGGAGGCAGGCUUCGGUGGCGCGAUAGCGACAACGUCCUCAACCUCCAAUGUAUCCCACCACAUGAUGAUGCCUGAACAGCCUUGGUUUUUUG [C72A C94U G120C] | 1.05 |
| GACCAAUCUGCCCUCAGAGCUCGAGAACAUCUUCGGAUGCAGAGGAGGCAGGCUUCGGUGGCGCGAUAGCUCCAACGUCCUCAACCUCCAAUGCAUCCCACCACAUGAUGAAGCCUGAAGAGCCUUGGUUUUUUG [G71U U112A] | 1.49 |
| GACCAAUCUGCCCUCAGAGCUCGAGAACAUCUUCGGAUGCAGAGGAGGCAGGCUUCGGUGGCGCGAUAGCGACAACGUCCUCAACGUCUAAUGCAUCCCACCACAUGAUGAUGCCUGAAGAGCCUUGGUUUUUUG [C72A C86G C89U] | -1.07 |
| GACCAAUCUGCCCUCAGAGCUCGAGAACAUCUUCGGAUGCAGAGGAGGCAGGCUUCGGUGGCGCGAUAGCGACAACGUCCUCAACCUCCACUGCAUCCCACCACAUGAUGAUGCCUGAAGAGCCUUAGUUUUUUG [C72A A91C G127A] | -2.21 |
| GACCAAUCUGCCCUCAGAGCUCGAGAACAUCUUCGGAUGCAGAGGAGGCAGGCUUCGGUGGCGCGAUAGCUCCAACGUCCUCAACCUCCAAUGCAUCCCACCACAUGAUGAUGCCUGAAGAGCGUUGGUUUUUUG [G71U C124G] | 1.72 |
| GACCAAUCUGCCCUCAGAGCUCGAGAACAUCUUCGGAUGCAGAGGAGGCAGGCUUCGGUGGCGCGAUAGCGACAACGUCCUCAACCUCCAAUGCAUCCCCCCACAUGAUGAUGCCUGAAAAGCCUUGGUUUUUUG [C72A A100C G120A] | -0.61 |
| GACCAAUCUGCCCUCAGAGCUCGAGAACAUCUUCGGAUGCAGAGGAGGCAGGCUUCGGUGGCGCGAUAGCGACAACGUCCUCGACCUCCAAUGCAUCCCACCACAUGAUGAUGCCUGAAGAGCCUUGGUUUUUUG [C72A A83G] | -0.951 |
